Data from article PMC4552487.

Target: Parkin 80-465 (UniProt O60260)
Test: AlphaScreen, competition with GST-Ubl (1-76)
Conditions: reference: unphosphorylated Ubl (1-76); sites S65

Q: “Parkin Ubl domain, 1-76 (from UniProt O60260) Ubl (1-76) phosphorylated by TcPINK1, Mono-Q purified” was tested. Which “binding against the reference” value did it give?
A: Its value is “weaker”.
